Data reported in paper PMC7948422, “Repurposing p97 inhibitors for chemical modulation of the bacterial ClpB–DnaK bichaperone system” (The Journal of Biological Chemistry, 2020).
*: point of attachment. FITC = O=C1OC2(c3ccc(O)cc3Oc3cc(O)ccc32)c2ccc(NC(=S)*)cc21; Ahx = NCCCCCC(=O)O

Biological target: T1, full-length E. coli DnaK (residues 1–638) (Escherichia coli, UniProt P0A6Y8 1-638)
T1 construct: DnaK (Hsp70), Escherichia coli, residues 1-638; cloned from pTTQ19dnaK+ into pET28a; source: E. coli BL21(DE3), purified (Q Sepharose, DEAE-Sephacel, Superdex 200)
Experiment: fluorescence polarisation; fluorescence anisotropy of FITC-B2 with 1-μM DnaK in buffer C (50-mM Tris-HCl pH 7.4, 20-mM MgCl2, 1-mM EDTA, 0.5-mM TCEP), DBeQ solutions in DMSO added, room temperature, 30-min incubation
Details: both partners purified

T1 sequence (P0A6Y8 whole entry, the tested form may be a part): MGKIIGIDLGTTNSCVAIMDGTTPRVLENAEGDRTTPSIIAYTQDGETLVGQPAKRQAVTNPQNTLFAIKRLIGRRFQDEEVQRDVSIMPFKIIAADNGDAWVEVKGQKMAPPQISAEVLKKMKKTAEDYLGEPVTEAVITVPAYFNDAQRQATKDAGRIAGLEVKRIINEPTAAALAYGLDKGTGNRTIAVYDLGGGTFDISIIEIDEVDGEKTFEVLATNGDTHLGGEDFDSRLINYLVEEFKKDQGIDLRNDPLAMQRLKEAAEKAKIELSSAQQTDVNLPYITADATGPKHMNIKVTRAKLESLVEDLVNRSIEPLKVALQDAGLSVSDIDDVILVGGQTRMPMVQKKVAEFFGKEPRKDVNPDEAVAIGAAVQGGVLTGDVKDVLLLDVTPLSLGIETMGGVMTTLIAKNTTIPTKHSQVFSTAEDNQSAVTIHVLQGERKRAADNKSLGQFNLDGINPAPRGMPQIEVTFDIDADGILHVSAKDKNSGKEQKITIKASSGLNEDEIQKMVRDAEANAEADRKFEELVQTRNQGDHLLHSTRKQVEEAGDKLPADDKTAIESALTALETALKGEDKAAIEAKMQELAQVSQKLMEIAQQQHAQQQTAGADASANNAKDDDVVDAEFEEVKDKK

B1: FITC-B2 (FITC-Ahx-QRKLFFNLRKTKQRLGWFNQ-NH2) (peptide)
peptide: {FITC-Ahx}-QRKLFFNLRKTKQRLGWFNQ-NH2
SMILES: CC(C)C[C@H](NC(=O)[C@H](CCCNC(=N)N)NC(=O)[C@H](CCC(N)=O)NC(=O)[C@H](CCCCN)NC(=O)[C@@H](NC(=O)[C@H](CCCCN)NC(=O)[C@H](CCCNC(=N)N)NC(=O)[C@H](CC(C)C)NC(=O)[C@H](CC(N)=O)NC(=O)[C@H](Cc1ccccc1)NC(=O)[C@H](Cc1ccccc1)NC(=O)[C@H](CC(C)C)NC(=O)[C@H](CCCCN)NC(=O)[C@H](CCCNC(=N)N)NC(=O)[C@H](CCC(N)=O)NC(=O)CCCCCNC(=S)Nc1ccc2c(c1)C(=O)OC21c2ccc(O)cc2Oc2cc(O)ccc21)[C@@H](C)O)C(=O)NCC(=O)N[C@@H](Cc1c[nH]c2ccccc12)C(=O)N[C@@H](Cc1ccccc1)C(=O)N[C@@H](CC(N)=O)C(=O)N[C@@H](CCC(N)=O)C(N)=O
notes: peptide B2, substrate-mimicking peptide; also called FITC-labeled peptide B2; substrate-mimicking peptide; source: obtained as described before (65)
  binding result: binds
